Substrate in data set [1]: CCn1c(=NN=c2sc3cc(S(=O)(=O)O)ccc3n2CC)sc2cc(S(=O)(=O)O)ccc21
Briefly: purified protein. Format: biochemical, Streptomyces coelicolor. The conditions noted are these: pH 4.0, 25 °C, 20 mM Britton-Robinson buffer.

Substrate in data set [2]: CC(=O)N1c2ccc(O)cc2Oc2cc(O)ccc21
Description: purified protein. Format: biochemical, Streptomyces coelicolor. The settings on record: pH 7.0, 25 °C, 20 mM Britton-Robinson buffer.

[3] abbreviates: 500 µM CuCl2, air O2, 1 µM enzyme.
Where [4] appears, read: 1 mM CuCl2, air O2, 1,000 nM enzyme.

B1: ScSLAC (Streptomyces coelicolor A3(2)) (protein)
chain: APAAKGITARTAPAGGEVRHLKMYAEKLADGQMGYGFEKGKASVPGPLIEVNEGDTLHIEFTNTMDVRASLHVHGLDYEISSDGTAMNKSDVEPGGTRTYTWRTHKPGRRDDGTWRPGSAGYWHYHDHVVGTEHGTGGIRNGLYGPVIVRRKGDVLPDATHTIVFNDMTINNRKPHTGPDFEATVGDRVEIVMITHGEYYHTFHMHGHRWADNRTGILTGPDDPSRVIDNKITGPADSFGFQIIAGEGVGAGAWMYHCHVQSHSDMGMVGLFLVKKPDGTIPGYEPHEHGGATAKSGESGEPTGGAAAHEHEH
notes: N-terminal signal peptide (residues 2-30) removed, C-terminal His6, pET28, expressed in E. coli B-95deltaAdeltafabR, Cu-loaded; homotrimer (known biology)
Consider B1, for which the Km in “purified protein [1]” (1 mM CuCl2, air O2, 200 nM enzyme) is 0.96(5) mM. In addition, in “purified protein [2]” (setting [3]), the Km was 0.25(3) mM and the kcat is listed as 0.045(4) min-1.

B2: ScSLAC (Streptomyces coelicolor A3(2); M296W/S292P) (protein)
chain: APAAKGITARTAPAGGEVRHLKMYAEKLADGQMGYGFEKGKASVPGPLIEVNEGDTLHIEFTNTMDVRASLHVHGLDYEISSDGTAMNKSDVEPGGTRTYTWRTHKPGRRDDGTWRPGSAGYWHYHDHVVGTEHGTGGIRNGLYGPVIVRRKGDVLPDATHTIVFNDMTINNRKPHTGPDFEATVGDRVEIVMITHGEYYHTFHMHGHRWADNRTGILTGPDDPSRVIDNKITGPADSFGFQIIAGEGVGAGAWMYHCHVQPHSDWGMVGLFLVKKPDGTIPGYEPHEHGGATAKSGESGEPTGGAAAHEHEH
notes: as for B1
As for B2, in “purified protein [2]” (500 µM CuCl2, air O2), the Km was 0.144(5) mM and the kcat is on record as 0.405(4) min-1.

B3: ScSLAC (Streptomyces coelicolor A3(2); M298L) (protein)
chain: APAAKGITARTAPAGGEVRHLKMYAEKLADGQMGYGFEKGKASVPGPLIEVNEGDTLHIEFTNTMDVRASLHVHGLDYEISSDGTAMNKSDVEPGGTRTYTWRTHKPGRRDDGTWRPGSAGYWHYHDHVVGTEHGTGGIRNGLYGPVIVRRKGDVLPDATHTIVFNDMTINNRKPHTGPDFEATVGDRVEIVMITHGEYYHTFHMHGHRWADNRTGILTGPDDPSRVIDNKITGPADSFGFQIIAGEGVGAGAWMYHCHVQSHSDMGLVGLFLVKKPDGTIPGYEPHEHGGATAKSGESGEPTGGAAAHEHEH
notes: as for B1
Take B3: in the data set “purified protein [1]” (setting [4]), the Km is 1.19(7) mM and the kcat was 0.32(1) s-1.

B4: ScSLAC (Streptomyces coelicolor A3(2); M298F) (protein)
chain: APAAKGITARTAPAGGEVRHLKMYAEKLADGQMGYGFEKGKASVPGPLIEVNEGDTLHIEFTNTMDVRASLHVHGLDYEISSDGTAMNKSDVEPGGTRTYTWRTHKPGRRDDGTWRPGSAGYWHYHDHVVGTEHGTGGIRNGLYGPVIVRRKGDVLPDATHTIVFNDMTINNRKPHTGPDFEATVGDRVEIVMITHGEYYHTFHMHGHRWADNRTGILTGPDDPSRVIDNKITGPADSFGFQIIAGEGVGAGAWMYHCHVQSHSDMGFVGLFLVKKPDGTIPGYEPHEHGGATAKSGESGEPTGGAAAHEHEH
notes: as for B1
As for B4, in the data set “purified protein [1]” (setting [4]), the Km is on record as 0.4(1) mM and the kcat is 0.19(3) s-1.
